Experimental data as given in the DeepSol protein solubility set.

Assay: soluble on expression in E. coli; label from the status in PepcDB or PDB records

| Sequence | soluble on expression in E. coli |
| --- | --- |
| RSFYNLGMDYKYRFHRFSIQGEAALGISGMAFMNQVLYSPLQDIRLMLVHRYYSHDYWAMFAHSFSEGSSVQNENGWYLAASVNPFNRWTFFVSADLFSFPWWRYRISKASKGVDLLFQADYVPSKTVDMYVNYRYKQKERDVTGTQGKVILPTYHHRLRYRLNYLPCSSLSLRTTVDYNHFHSSGKTAGQGYQLTQTAGWKLPWLPLTTELQGSYFHTDDYDSRIYIYEKGLLYSFYTPSFQGEGIRLAIHFRYDMNKHWTAIAKLGQTTYFDRDEIGSGNDLIRGNKKTDVQMQLRLKF | not soluble |
| GPGSMSEELILQWAKRVSDAEEELHRMEEDINAVKQQRKLLKADIRKYEDVVASEKCDLLTSLERVEAQAKDLGAQCEATLTEKDRVEAEYMATLDAYENLHFLVREIKDAEEHLQSRDDLEACLQRESVTWAEEEHTLRRKLHELQQQQAQARRAQEAEVRELEAQLSNVEQRQRDERAGRCVEVAQAARRVVHSSRQPTPASPKPVTSAEEDAFVSANAGGAMPIRSAPLKSCLKTPVNGSTSGNAAPTAPRHTTAASAPVSRCASQSLVSDAAASGVQRQGVDGGDQPSLRLLQEMRAYSYGAPCKAGARKREFLGDATNNQ | soluble |
| METSETDSTGNTQTCETRQTRSNSWTAWGIHAISTITDGAKQLYTKALGLDELEEKKLEDEEGVTHVEVDEKTKRDLWNQLSTLVGADVINMRLSLPVWLFEPTTALQRMCETLQFHQLLDMAATCEEPVERDALVAAFTVSAFAHTERVYKPFNPVLGETFEWTSRDGTTRVLCEQVSHHPPVSVSYTEGPGWVAQEVFSCNAYFLGNSVEIRNTGSRYVYLTSFDERYEWTLPVSAAQNLFVGGSFIDHYGELILRSSPRGSVTSLTFTKCGWFGRGRYAVNGDIVDADGYRVMELSGEWNRGLVGFRLDKSSGERVDAKSLWYAGEHKPAVKRDKYNFTNFTYELLEVPDNAESIIPPTDSRFRPDRRALEGNNLSLANLEKVRVENIQRERENQRQKTGTTYVPAWFYQDDNNEWHFGGKYWKETRNMSEDQKEQMKLW | soluble |
| MGSDKIHHHHHHMADLCVNLVPLFDALPQDEKMQIEKLVQHKNYQKGEVIIDPTINDNLVIVADGNAKQYTLDEDGYENVLQILHTGDYIGEDWLFGQKNINNYVEATEHSEICLLKRQDLLKLMHKQPELSIRLLELSIVKVSEMQKQIHLMALPKVEDRLLKYLQTYADEIGKNNFTLPLKMKDLALYLGTTPETLSRKFALLEKQGQLKRQLRRIELFEN | not soluble |
| MGRGSEFGIFAFTDSVFEITESVGRFELKVMRYSGARGTVIVPYWTENDTATESKDYEGARGELVFENNESEKFIDLFILEESSYEKDVSFKVHIGEPRLAPDDGLAAKIKEVEKKPVQDLTELDRILLLSKPRNGELTTAYVRIRESQEFKATVDKLVAKA | soluble |
| MHTLEQLRAGALTGIQALKLSENLTEVPAEVFQLADTLEILDLSGNRLHSLPQEMACLTRLRILFLSDNDFTIFPEVLKELKQLDMLGIKANNIQVIAEDAIPVSLRWLILTDNCIEALPVSIGRCTKLQKVMLAGNQLSGLPDELAACRNIELLRISANNMHTFPEVVKQLPRLAWLAYSSNPFQVNRSSFNALPVIAWENVALMEQLGAGASGIIYKARLNTGKSPEDVAVKVFKGAVTSDGLPEDEMTACMQAGRNSHLVSVLGVIGGHPEGMHGLVMELIPAEYKNLGRPPSFVTCTRDTFAAGTRFTAQQMLLILKGVAEAAKQLHDNGIMHGDLYAHNTLINEKYHSLFGDFGAATLYDKNNRDEAFFLERLDVRAFGCLADDLLQYSVCTKEDEWCLETLKRLSAGCMNEEPDKRPAFNTIVYELQLLQNTHLEHHHHHH | soluble |
| SEERLNYIVFNQNISNMANKEVRQALSYALNRNEMIESAYGKEGSVPAKSILVPEADFYTEEGVEGYDQDTNKAKDLLDKSGVKIDKLKIGYNTGRFGHKNYALVAQQELKKIGIEAEIVPYESKAFFNILFSNSTECDMYVNGYAWGLEPNPYRGMFETGQYCNQTKYSNAEIDALWEKGFTELNKEKREEIYKQIQQDISKDAPIYTIDYEQNLMAAQKNL | not soluble |
| MVKETHRFETFTEEPIRLIGEEGEWLGDFPLDLEGEKLRRLYRDMLAARMLDERYTILIRTGKTSFIAPAAGHEAAQVAIAHAIRPGFDWVFPYYRDHGLALALGIPLKELLGQMLATKADPNKGRQMPEHPGSKALNFFTVASPIASHVPPAAGAAISMKLLRTGQVAVCTFGDGATSEGDWYAGINFAAVQGAPAVFIAENNFYAISVDYRHQTHSPTIADKAHAFGIPGYLVDGMDVLASYYVVKEAVERARRGEGPSLVELRVYRYGPHSSADDDSRYRPKEEVAFWRKKDPIPRFRRFLEARGLWNEEWEEDVREEIRAELERGLKEAEEAGPVPPEWMFEDVFAEKPWHLLRQEALLKEEL | soluble |
| LGVDRAKQIQALAKGTFGINIALDAFTLELRLLVEQIEFIEEQISVIEEAIDQVMEEMRPSKDTAYRHVLETIPGIGPVLAASIIGEIGDINRFPNAKALVAYAGLDATVRSSGQFEGTRNRISKRGSPVLRHSIWLAAVSARRFNPEMKEFFEKKRSEGKHTLVATGAVARRMVHLIYSLWKDNRPFDPNYQWSPTNSR | soluble |
| MGSDKIHHHHHHMRLLFRKAGEFFRDFVSIFKHISDDLEMYLKLDPAAESKLQVFFFYASFQGLMWYRFAHFFYKWKLKVLAYLIYYFVRVVFSMDIHPAARIAPGVVIDHGIGVVIGSTASVGRGTLIYHGVTLGTRKPCSGKRHPDVGENVMIGTGAKILGPIRVGNNAVVGANAVVLEDVPDGAVVVGVPARIVKWRRDFCDDGKTDREHSYSETRFDRLENLLETGKE | not soluble |
| PEKVTVVPKFGDWDENNPSSADGYTHIFNKVREER | soluble |
| MSLKQAMGYLRQSTTKQQSLAAQKQTIKVLAEKHNIQHITFYSDKQSGRTDKRNGYQQITELIQQGQCDVLCCYRLNRLHRNLKNALKLMKLCQTYHVHILSVRDGYFDMNKAFDRLKLNIFISLAELESDNIGEQVKNGLREKAKQGKLITTHAPFGYHYHNGTFTIDTVKSPTVKAVFNYYLQGYGYKKIAQYLEADNKFINRKPYQVRNIILNPNEGHHHHHH | not soluble |
| MGSDKIHHHHHHMTSSLQKLFTFDEFLDFLVTQPENIRYELHDGNIIQMPPPLGQHEQIVAFLTMILGYECLRLKLNYGIPKNATVKPENRTSGYYPDVLLINFSNLINEALWEKQSILSHPDSIPLVIEVVSTNWRDDYHKKLADYEEMGIQEYWIVDYAALGSKELIGDPKQPTITIYSLSDEGEYRGKQFRGDDRIESPTFSNLNLKVEQIFHCVIE | not soluble |
| MSLYELQKVIKMDTETEDVPMFTVQNLPREDIYKTIGEMAIIVPMKNEKLHLVDGVLKAIPHKSPIIIVSNSKRKGPNRFKQEVDLVKHFCNLTHSKVIMIHQRDPGLAEAFRETGYEDILDEKGLVRSGKGEGMLIGIMLAKAIGAKYVGFVDADNYIPGAVNEYVKDYAAGFLMSESEYAMVRLHWRHKPKVSRGTLYFKKWGRVSEITNRYLNQLISEKTAFETTIMVTGNAGEHAMTMKLAEILPFSTGYSIEPYEIVYLLERFGSWENVEEFQDVFDQGIEIFQIETLNPHFHEDKGQEHVKEMVLLSLTTIYHSKLASERLKRQILEDLRMHGIIKEDEEPPKPRVMRPIKDIDIKKWMKTLESNQETLLRFDLEGHHHHHH | not soluble |
| MSLTTVRMTIPDDFILGAAASAWQTEGWSGKKPGQDSWPDLWYKNDRHVWHNGYGPAVATDFINRFQEDVQLMKLAGLTHYRTSINWSRFLTDYENVTVDEEYAAYYDQLFDALLANGITPMICLEHYELPGYLLEKYGGWGSKTVVELFVRYAEKVFARYHPKVTRWFTFNEPIVVQTRVYLDALRWPYEQNTSTWMQWNYHKVLATASVVKRFRELGYPGTIGCILNPEVTYPRSRAPHDLRAAEIYDLFYNRMFLDPLVHGVWPPELLALLEQHQVTWETSEEDLAVIREHTVDELGINLYYPHRVKAPSRAWHPHTPFHPAWYYEPFELPGRRMNASRGWEIYPQIIFDMAMRIKNDYRNIPWFVAESGMGVENEGQFRNREGVIDDSYRIRFISEHLWHTLRAREAGANCQGYMLWAFTDNVSPMNAFKNRYGLIEIDLQNHRARRAKASAHWFRQLGERRELVLDEGHHHHHH | soluble |
| NIEQGLYAMLGVYVSSKTIDVVQVGFNRSKMALIITKQEQAVKEAVLQKIDRGVTKISAVGGYTDDDRPILMCVVGQTEFTKLKQIVKQIDESAFVIVADASEVLGEGFKRA | not soluble |
